In article PMC10245715 (bioRxiv, 2023):

Target: p97 (valosin-containing protein, VCP), full-length, wildtype, human (human, UniProt P55072 1-806)
Assay: SEC

p97 (valosin-containing protein, VCP), full-length, wildtype, human, sequence (P55072 whole entry): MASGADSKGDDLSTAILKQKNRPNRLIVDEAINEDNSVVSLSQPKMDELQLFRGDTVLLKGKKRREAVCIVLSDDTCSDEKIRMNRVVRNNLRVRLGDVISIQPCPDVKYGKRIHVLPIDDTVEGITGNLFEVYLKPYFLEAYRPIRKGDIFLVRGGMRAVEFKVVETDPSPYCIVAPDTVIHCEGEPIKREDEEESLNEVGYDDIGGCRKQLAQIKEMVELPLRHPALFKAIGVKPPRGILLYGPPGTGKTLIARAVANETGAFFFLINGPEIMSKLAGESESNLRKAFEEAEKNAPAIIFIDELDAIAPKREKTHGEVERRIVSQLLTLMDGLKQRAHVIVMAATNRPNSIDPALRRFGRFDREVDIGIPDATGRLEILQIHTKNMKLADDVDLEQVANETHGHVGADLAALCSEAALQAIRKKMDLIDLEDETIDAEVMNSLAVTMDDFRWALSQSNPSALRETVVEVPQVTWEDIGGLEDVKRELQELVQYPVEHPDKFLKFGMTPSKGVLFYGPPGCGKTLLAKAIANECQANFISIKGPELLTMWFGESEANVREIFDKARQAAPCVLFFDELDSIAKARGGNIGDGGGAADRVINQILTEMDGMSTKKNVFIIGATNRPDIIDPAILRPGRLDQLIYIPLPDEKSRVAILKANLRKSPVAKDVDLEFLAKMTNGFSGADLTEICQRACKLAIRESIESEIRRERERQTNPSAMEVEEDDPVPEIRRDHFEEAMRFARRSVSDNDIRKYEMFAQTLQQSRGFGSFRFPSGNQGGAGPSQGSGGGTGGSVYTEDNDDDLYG

B1: UBXD1 double mutant containing both the lariat and H4 changes, full-length (natural protein)
chain: MKKFFQEFKADIKFKSAGPGQKLKESVGEKAHKEKPNQPAPRPPRQGPTNEAQMAAAAALARLEQKQSRAWGPTQSRDVTQERIQNKAVLTEASGSPEAPGTNVVSEPREEGSAHLAVPGVYFTCPLTGATLRKDQRDACIKEAILLHFSTDPVAASIMKIYTFNKDQDRVKLGVDTIAKYLDNIHLHPEEEKYRKIKLQNKVFQERINCLEGTHEFFEAIGFQKVLLPAQDQEDPEEFYVLSETTLAQPQSLERHKEQLLAAEPVRAKLDRQRRVFQPSPLASQFELPGDFFNLTAERIKEEQRLESEAVRRLSVLRTKAMREKEEQRGLRKYNYTLLRVRLPDGCLLQGTFYARERLGAVYGFVREALQSDWLPFELLASGGQKLSEDENLALNECGLVPSALLTFSWDMAVLEDIKAAGAEPDSILKPELLSAIEKLL
B1: binds.
